Publication PMC11871449
pKd: −log10 of the molar value.

Target: TDP-43 RRMs (RRM1-RRM2) (UniProt Q13148)
Assay: EMSA (multiplexed)
Conditions: 20 mM Tris-HCl pH 7.5, 150 mM KCl, 5 mM MgCl2, 10% glycerol, 30 min, room temperature, 2 nM each labeled RNA (mEMSA), 5.5% TBE gel (4% for competition)
[1] = 5 mM Mg2+, fluorophore-UTP incorporated during transcription
[2] = 5 mM Mg2+, fluorophore-UTP incorporated during transcription (labeled form)

UniProt Q13148, sequence (Q13148 101-269): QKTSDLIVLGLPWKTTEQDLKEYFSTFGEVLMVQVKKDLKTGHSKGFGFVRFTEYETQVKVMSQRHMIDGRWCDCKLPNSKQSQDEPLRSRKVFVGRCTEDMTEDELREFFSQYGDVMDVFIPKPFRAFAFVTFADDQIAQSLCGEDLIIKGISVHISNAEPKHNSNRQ

Row | Sequence | pKd [1] | pKd [2] | further results
1 | AACACCAUGCUGGUUAUUUUGGCGGCUGUAGUUGUGGGGGGAUGUGUGUGUGCACGUGUGUGUGUGUGUGUGUGUGUGUGUGUGUGUGUGUGUUCUGUGACCUCCUGUCCCCAUGGUACGUCCCACCCUGUCCCCAGAUCCCCUAUUCCCUCCACAAUAACAGAAACACUCCCAGGGACUCUGGGGAGAGGCUGAGGACAAAUACCUGCUGUCACUCCAGAGGACAUUUUUUUUAGCAAUAAAAUUGAG [SLC1A5[2620-2869] 3'UTR] | 7.09 | – | –
2 | GUGGGCUUUUCCAUUGUCCCCCUGGCCUCCAGGCUCCUCCUCUGCCUCUCCAUGGAGUGGGUGGGGAGGUGGUGGGGGCCGGCGUCCCCUGCGUGUGUGUGUGUGUGUGUGUGUGUGUGUGGAUGUAUUGACCUGUGUUUCCCAAGACAGCAGGUGCCACGGCCCGCCCCGCCUGCCAGCCCGAAUUCCCGUUCUCCUGUGUCUACUAACAAGGACGGAUCCAGCU [CSNK1E[2054-2264] 3'UTR] | 7.00 | – | –
3 | UGGCUAUCCUUUAAUGAUGCGUGUGGAAUGUGUGUGUGUGCUCAGGCAAUUAUUUUGCUAAGAAUGUGAAUUCAAGUGCAGCUCAAUACUAGCUUCAGUAUAAAAACUGUACAGAUUUUUGUAUAGCUGAUAAGAUUCUCUGUAGAGAAAAUACUUUUAAAAAAUGCAGGUUGUAGCUUUUUGAUGGGCUACUCAUACAGUUAGAUUUUACAGCUUCUGAUGUUGAAUGUUCCUAAAUAUUUAAUGGUUUUUUUAAUUUCUUGUGUAUGGUAGCACAGCAAAGCUU [HMGB2[739-1022] 3'UTR] | 6.83 | – | –
4 | AUCCCGCUGCUAUUAGAAUGCAUUGUGAAACGACUGGAGUAUGAUUAAAAGUUGUGUUCCCCAAUGCUUGGAGUAGUGAUUGUUGAAGGAAAAAAUCCAGCUGAGUGAUAAAGGCUGAGUGUUGAGGAAAUUUCUGCAGUUUUAAGCAGUCGUAUUUGUGAUUGAAGCUGAGUACAUUUUGCUGGUGUAUUUUUAGGUAAAAUGCUUUUUGUUCAUUUCUGGUGGUGGGAGGGGACUGAAGCCUUUAGUCUUUUCCAGAUGCAACCUUAAAAUCAGUGACAAGAAACAUUCCAAACAAGC [MALAT1[6638-6938]] | – | – | pKd (fluorophore-UTP incorporated during transcription): 6.90
5 | GAUUGAUGGUGGUGCCGAGGCAUGAAAGGCUAGUAUGAGCGAGAAAAGGAGAGAGCGCGUGCAGAGACUUGGUGGUGCAUAAUGGAUAUUUUUUAACUUGGCGAGAUGUGUCUCUCAAUCCUGUGGCUUUGGUGAGAGAGUGUGCG [TARDBP[2140-2283] 3'UTR] | – | 6.57 | –
6 | GCGAGGAGCCUUUCAUCCGAAGGCGGGACGAUGCCGGAUAAUCGGCAGCCGAGGAACCGGCAGCCGAGGAUCCGCUCCGGGAACGAGCCUCGUUCCGCGCCCGCCAUGGAACCGGAUGGUCGCGGUGCCUGGGCCCACAGUCGCGCCGCGCUCGACCGCCUGGAGAAGCUGCUGCGCUGCUCGCGUUGUACUAACAUUCUGAGAGAGCC [BARD1[86-310] negative control] | – | 5.75 | –
